According to a protein production outcome set (Wang et al. 2014):

Experiment: label from the status in PepcDB records

Sequence | protein production
MINMYIPQFNPRIRKDQKSGLFFFEIRDNEGKTVSYQSGFNTKREAENTALEIQQKLRQGYTLDRYTSLYDWFQTWYDLKIRPKKKLSQETKKNYQIYGETLKRLFGDKPIIDIKSSQYQRIMNVYGETVGYDYLSRINSVIRKIIKLAQSDKIVIDDFTSTVELFAGKDGQKVNEKYIHSVEDYHRLISYLENNLNYEDSVVNHVIYVIAKTGMRYGEIIGLTNNDTSLDEHYLHTYKRYNTSTWKWTNAKNESSKRYIPIDDKIVAALSNMIKERERINSLLRIKNKEEFLFFHYGLEHGIPSVATVNKALKKILKKLDIEPIITTKGLRHTYGSYLLHNNIDMGVVARILGHKDIQMLIQVYGHTLTEKIDKEFKEVEQIMNRI | failed
MGAVTDDEVIRKRLLIDGDGAGDDRRINLLVKSFIKWCNSGSQEEGYSQYQRMLSTLSQCEFSMGKTLLVYDMNLREMENYEKIYKEIECSIAGAHEKIAECKKQILQAKRIRKNRQEYDALAKVIQHHPDRHETLKELEALGKELEHLSHIKESVEDKLELRRKQFHVLLSTIHELQQTLENDEKLSEVEEAQEASMETDPKP | failed
MFANWLLVSVSIGYIGLLFLIAHLGGKYRNKLEAKQQTIIYALSLGVYCTSWGFLGTTAQAANHSFTFLSVYLAPIVLFVFAWPFIQRIIKTSLKLKITSIADLLSARFGKSQTLAIIITLVALIGTMPYIALQLKAIVNSYQILQETQDLPIWQIGLVVSIILAVFTIIFGIRTIDITERHPGVMIAIAFESLVKLIAFLLVGLFVSFIIYDSPMDIWELSKDQFDIEKQFEFSNLFALFGMLIIVMSAFLCLPRQFQVMFVEIKDKKTSGMARWVLPVYLLIFGFFAAVLGLAGNLNYGSSLAADAYVLFLPALDGQVWLSLFAFLGAVSAASSMVIVSTIALSTMLSNEIVFPVMFNFSRQKQQDFNHFQLQLLFIRKTLVLLVIFLSYGLLLVSPPDALSSLGEVAFGAIAQIGPALFVAFYWRRATLAGVLAGIICGFTIWTVFNLIPQLGIYAHPLENTDLPKTTVITLIGLLINVIALWLVSLGTRQSIREQMQSEFFYTDRKKIKWSLPSQPKVDIVELELLVARFIGEEKATKCFEKFHSMNQTKDNKKFNEAILFHAENTLARVLGSASAKLVTSLAISSRGMAFDQVAKLVEDNSTQQLEFSRTVLQSAIENVSEGISVIDSELKLVAWNKQYLDIFSYPEAFIYIGCPISQLIHFNLSQQGYFAKDIDLRVKKRIQYIMEGSRHNTEYKLKNGKNIRIEGSPIPGGGFVMIFSDITQYRQTEEVLKEENTDLESRVQFRTAELEQANKELALANHELIQAQTKAEQAHVKKSQYLKACSHDLLQPLSAARLFSSAISLSPRVSNEEREQIKKIDNSLEIANSLLLDLNEIARIESGNITPTIEPIEIKELFTMLANEFNALTDEYHVEFHCKMSKTYVASDITLLARIVQNFLSNAFRYAHRCDKKNQSKVLLGCRRQGNEISIQVFDNGPGIPIDKQQQVFDQFTQLNNSNVMGPKGLGLGLNIAQSLANILEHKIDLKSKPGHGCLFSVNAPMTLAPAAKEQTLPPASMSLHGVGVLCIDNEPAILDGMSKLLSAWQCQVFTAVDAQQARELYAKHEDEIDILLVDYQLDGCQDDNTIMATDMLISERNDSSCSIDPVNGIGLIKQLRAMSPYALPAILITATTGENLMALTKQHNIGYLRKIIRPLALRALMSSLLTEELAKNYSQNNT | failed
MTGEKIRSLRRDHKPSKEEGDLLEPGDEEAAAALGGTFTRSRIGKGGKACHKIFSNHHHRLQLKAAPASSNPPGAPALPLHNSSVTANSQSPALLAGTNPVAVVADGGSCPAHYPVHECVFKGDVRRLSSLIRTHNIGQKDNHGNTPLHLAVMLGNKECAHLLLAHNAPVKVKNAQGWSPLAEAISYGDRQMITALLRKLKQQSRESVEEKRPRLLKALKELGDFYLELHWDFQSWVPLLSRILPSDACKIYKQGINIRLDTTLIDFTDMKCQRGDLSFIFNGDAAPSESFVVLDNEQKVYQRIHHEESEMETEEEVDILMSSDIYSATLSTKSISFTRAQTGWLFREDKTERVGNFLADFYLVNGLVLESRKRREHLSEEDILRNKAIMESLSKGGNIMEQNFEPIRRQSLTPPPQNTITWEEYISAENGKAPHLGRELVCKESKKTFKATIAMSQEFPLGIELLLNVLEVVAPFKHFNKLREFVQMKLPPGFPVKLDIPVFPTITATVTFQEFRYDEFDGSIFTIPDDYKEDPSRFPDL | failed
MPSGLEQCAPRCRALLQGESGVQIQGHYELKFEAVREAFAALFEDSQERGAALCIQVGGETVIDLWAGTADKDGAEAWHSDTIANLFSCTKTFTAVTALQLVAEGKLKLDAPVADYWPEFAAAGKAAITLRQLLCHQAGLPAVRELLPAQALYEWQTMVDALAAEQPWWTPGEGHGYAAITYGWLVGELIRRADGRGPGESIVARVARPLGLDFHVGLADEEFYRVAHIARGKGNMGDAAAQRLLQVTMREPDAMSTRAFTNPPSILTSTNKPEWRRMQQPAANGHGNARSLAGFYSGLLDGSLLEADMLEELTREHSLGMDKTLLTQTRFGLGCMLDQPQVANATFGLGARAFGHPGAGGSIGFADPEHDVAFGFVTNTLGPYVLMDPRAQKLVRVLSDCLLEHHHHHH | failed
QEYILALADVPSSPYGVKIIELSQTTAKVSFNKPDSHGGVPIHHYQVDVKEVASEIWKIVRSHGVQTMVVLNNLEPNTTYEIRVAAVNGKGQGDYSKIEIFQTLPV | not failed
MADMSDAPLVVQSDRTILLEVDNPLYPEARDALARFAELVKSPEHIHTYRLTPLSLWNAAAGGLDAATIIQVLADYSKYPLPANVVADIREYVGRYGKVKLVARGTGLRLVTADPGIAAEISNNKRIQPYIKERQDACTLAIDPWQRGPVKQALIKIGYPVEDLAGYIPGAPLPFSLRERTLNGETFSLRPYQAEAARVFYAGGSSRGGSGVIVLPCGAGKTVVGIAAMALCQCYTLILVTSVTAARQWLAEIRDKTDLPPEMLGEYTGEKKEIKPVTVATYQIITHRRRRNEDYPNFQLFNQQDWGLIIYDEVHLLPAPIFRITAELQARRRLGLTATLIREDGHEDDVFSLIGPKKYDLPWKQLEAQGWIAKATCYEVRLNLPPEMRLDYASAGERDKYRIAATNPVKEAVVENIIKRHEGEQVLVIGQYLEQLERLARRLGVPMITGQTSNRERERLYQAFREGTLKCLVVSKVANFAIDLPEASVAVQVSGAFGSRQEEAQRLGRILRPKKGGLPASFYTLVTRETVEQEFAVHRQLFLTEQGYRYVIIGPDLEQEGDKVYPLKTPTGSEPAVGAVIKQENLDGKVIDLMAWRQKAGR | failed
MKQILFLLAAVLLLGGCAEEKKTDVRWATFNIRYDNPQDSLNNWQYRKDRVCQFIKDHELDIVGMQEVLHNQFQDLRAGLPEYDGIGVGRDDGKTAGEYAPLFYRKDKYEVLDSNTFWLAENPDSVGMMGWDAVCVRIATWAKFKDKATGKIFMAVNTHFDHVGEEARRQSALLIIRKIKEIVGERPAVVTGDFNVTDASDAYETITTNEFVMKDAYKTAARVTGVDYTFHDFARIPAEDCEKIDFIFVTPQVLVKSCEIPAEVPEALLSDHNPQLADLEF | failed
MPEEALKTYEELLELEKRIGNKREIGLTLANLAIIKDELGNVEEAIKLMEEARKIFEELKDENNYLISLIDLAHFKYELGEYEEAMKLIREVLRNPVDKEIEVNARLVESEIYAGERKYKEAAISLRNALQRSEDDEELFSLVFDSLTEFLEGLFNESRLEHHHHHH | not failed
MKIDVVTIFPAYLDPLRQSLPGRAIASGLVDLQVHDLRRWTYDVHHSVDDSPYGGGPGMVMKAPVWGEALDEICSAETLLVVPTPAGSLFDQATAQRWSAEQHLVFACGRYEGIDQRVAEDSARRMRVEEVSIGDYVLPGGESAAVVMIEAVLRLLTGVLGNPASHQEDSFSPELDRLLEGPSYTRPPSWRGLDVPEILLSGDHARIATWRREVSLRRTRERRPDLAPPE | failed
MIFMRTEDVRRDIPLLRDHVYLDAASTTPTPLPVVRAMTEYFKEYNANTGRGAYSLVLRATRKLQEAREKVAGFINASSDEIVFTKNTSEAINIVAGGLRFRKGDSVVVPNIEHHSNFLPWLRLRERGVDVRVVKADEGGVVDPGRIEDAVDETTRLVTVTHISNALGTVQDVKEIGRIAHDVGALYLVDAAQSIGHMEVDVRAIGADFAAFPGHKGTLGPVGTGFLYCSTDVQGELEPLMLGGGTVLDVSEDGYVLEDFPAKFEAGTLNIAGFIGLGASIDYMNRIGIRRIQKHGMKMTEELHATVSSIDGIECYGDPQNIYGILSFNINNMDPHDVAKILDETAGICVRSGHHCAIPAMKHLALHETGGTVRASIHYYNTSEEIQLLGETLEEIAGMG | failed
MGLRALSASVNAFECEKQHGDPKSMRINSVPGGRPPRDGRPSRAGALFGCSSAEALYFGSECRPGPSARRFGDNRAHSSLTYWCGMNTFDFGFDDSEDSPHEDPLEDLVAAYENDPSAYFDSGDLEEIASFYFEEGEMETALEVIDRLIELHPYTSDAWMRRGILLNNLGRPEEALEAYEQALDVNPTDTETLINLGITLDSLGRVDEALEAYDEALSINPLHGEALFNLGVTLERDEQLEAAVEAFQRCADVYPEHPEVWYELGYCYDRLGEDEKSVEAYDNHLDIDPYSKDAWYNRGIVLNRLGRFGEAVESYDMALAIHDEFASAYYNRGNAEANQGDLEAAVESYERVLELEGPDAATYYNLALAYEEQGDLRAARTYYEKTLDLKSNYPEAWYGLGCCFDTDERPEEALECFRYAVNLDANVPKFWTARADCAYKVGKLDEALESYQHAVRLDESNEHAWTGYAETLLEKEQPEEALEAYRQALELDPKSANTYFRQAKALLALGRADESIRALKTAFRLDPAKKEEFQKAYPTLYDNDRVRRLLDLDS | failed
GIATSDNFMQAFLNVLDQCPKLEVDIPLVKSYLAQFAARAIISELVSISELAQPLESGTHFP | failed
MSELIKHSSNFLAAISPDNDCSITATNDFEAMMSWLNGYKKKPINTSRNYAREVKRYLIWLSCQGLTLAQVKIEDVYEYFNLLERPTTEWIIPDKKTDKIYPTQLIKYGGLSNRSINYTHTVLGLFYSFLQDAGYLTKNPINLEHHHHHH | failed
MLRNIIRFKGFGKGTSGGFLKPVSFRVQLTRCYRYDNGPSYRRFNNGEYSQKSSFKSILLDKSSRKYLALLFGGCSLFYYTHLDKAPVSDRSRFIWVSRPLELTIGNYTYKSIWRQTQQEILPPQHPLSIKIENIFMKIVEAAYKDPSVDNSLLDGIKWEIHVVNDPTASPNAFVLPGGKVFIFSSILPICANDDGIATVLAHEFAHQLARHTAENLSKAPIYSLLGLVLYTVTGAHAINNILLDGFLRMPASRQMETEADYIGLMIMSRACFQPQESIKVWERMANFEKQMNRGGVVNMEFLSTHPASTRRIENMSKWLPKANEIYEQSDCSSMGNYYKSFFSM | failed
MGLGMEIGKLIVAFLVLINPFSALSLYLDLTNGHSTKERRKVARTAAVAVFAVIAVFALIGGALLKVLGISVGSFQVGGGILVLLIAISMMNGNDNPAKQNLGAQPETGQARPARNAGAIAVVPIAIPITIGPGGISTVIIYASAAKTYSDIALIIAAGLVVSAICYAILIVAGKVSRLLGATGLTILNRIMGMMLAAVSVEIIVSGLKTIFPQLAG | failed
RRENHQTIQEFLERIHLQEYTSTLLLNGYETLDDLKDIKESHLIELNIADPEDRARLLSAAESLL | not failed
MSLKITSIEVFDCELKKRDQTMSSYNPVLIRVNTDSGLSGIGEVGLAYGAGAKAGVGIIRDLAPLIVGEDPLNIEKIWEFFFRKTFWGMGGGNVFYAGMSAIDIALWDIKGKYLGVPVYQLLGGKTNEKLRTYASQLQFGWGDKRHILVTPEEYAEAARAALDDGYDAIKVDPLEIDRNGDDCVFQNRNRNYSGLLLADQLKMGEARIAAMREAMGDDADIIVEIHSLLGTNSAIQFAKAIEKYRIFLYEEPIHPLNSDNMQKVSRSTTIPIATGERSYTRWGYRELLEKQSIAVAQPDLCLCGGITEGKKICDYANIYDTTVQVHVCGGPVSTVAALHMETAIPNFIIHEHHTNAMKASIRELCTHDYQPENGYYVAPEQPGLGQELNDEVVKEYLAYVIKEGHHHHHH | not failed
